Three molecules from publication PMC5440653, “SorLA in Interleukin-6 Signaling and Turnover” (Molecular and Cellular Biology, 2017) can be followed below.

Assay [1] addresses SorLA Vps10p domain (human). The assay is described as follows: SPR; Biacore 3000, CM5 chip; purified soluble receptor immobilized (66 to 86 fmol/mm^2), ligand injected at 5 ul/min, 25°C, 10 mM HEPES, 150 mM NaCl, 1.5 mM CaCl2, 1 mM EGTA, 0.005% Tween 20, pH 7.4; Langmuir 1:1 model, global fitting. (In general: In SPR one partner is held on a chip, and binding of the other changes the refractive index at the surface.)

Assay [2] has as its target T1, soluble SorLA (SorLA ectodomain, luminal part) (human, UniProt Q92673 82-2137).
T1 construct: SorLA, human, luminal (extracellular) part; The introduction says that the propeptide is cut off in late Golgi compartments; also called sSorLA; the entire extracellular part of SorLA
The assay is described as above. To be noted: both partners purified.

The target in assay [3] is T2, preformed sSorLA:IL-6 complex (human, UniProt Q92673 82-2137; P05231 30-212).
T2 construct: SorLA, human, luminal (extracellular) part, as m3; interleukin-6, human, recombinant, as m1; source: formed on the sensor chip: immobilized sSorLA exposed to IL-6 (100 nM)
The assay is described as follows: SPR; immobilized sSorLA first exposed to IL-6 (100 nM), then fresh buffer with 100 nM sIL-6R injected; n = 3. To be noted: both partners purified.

T1 sequence (Q92673 82-2137): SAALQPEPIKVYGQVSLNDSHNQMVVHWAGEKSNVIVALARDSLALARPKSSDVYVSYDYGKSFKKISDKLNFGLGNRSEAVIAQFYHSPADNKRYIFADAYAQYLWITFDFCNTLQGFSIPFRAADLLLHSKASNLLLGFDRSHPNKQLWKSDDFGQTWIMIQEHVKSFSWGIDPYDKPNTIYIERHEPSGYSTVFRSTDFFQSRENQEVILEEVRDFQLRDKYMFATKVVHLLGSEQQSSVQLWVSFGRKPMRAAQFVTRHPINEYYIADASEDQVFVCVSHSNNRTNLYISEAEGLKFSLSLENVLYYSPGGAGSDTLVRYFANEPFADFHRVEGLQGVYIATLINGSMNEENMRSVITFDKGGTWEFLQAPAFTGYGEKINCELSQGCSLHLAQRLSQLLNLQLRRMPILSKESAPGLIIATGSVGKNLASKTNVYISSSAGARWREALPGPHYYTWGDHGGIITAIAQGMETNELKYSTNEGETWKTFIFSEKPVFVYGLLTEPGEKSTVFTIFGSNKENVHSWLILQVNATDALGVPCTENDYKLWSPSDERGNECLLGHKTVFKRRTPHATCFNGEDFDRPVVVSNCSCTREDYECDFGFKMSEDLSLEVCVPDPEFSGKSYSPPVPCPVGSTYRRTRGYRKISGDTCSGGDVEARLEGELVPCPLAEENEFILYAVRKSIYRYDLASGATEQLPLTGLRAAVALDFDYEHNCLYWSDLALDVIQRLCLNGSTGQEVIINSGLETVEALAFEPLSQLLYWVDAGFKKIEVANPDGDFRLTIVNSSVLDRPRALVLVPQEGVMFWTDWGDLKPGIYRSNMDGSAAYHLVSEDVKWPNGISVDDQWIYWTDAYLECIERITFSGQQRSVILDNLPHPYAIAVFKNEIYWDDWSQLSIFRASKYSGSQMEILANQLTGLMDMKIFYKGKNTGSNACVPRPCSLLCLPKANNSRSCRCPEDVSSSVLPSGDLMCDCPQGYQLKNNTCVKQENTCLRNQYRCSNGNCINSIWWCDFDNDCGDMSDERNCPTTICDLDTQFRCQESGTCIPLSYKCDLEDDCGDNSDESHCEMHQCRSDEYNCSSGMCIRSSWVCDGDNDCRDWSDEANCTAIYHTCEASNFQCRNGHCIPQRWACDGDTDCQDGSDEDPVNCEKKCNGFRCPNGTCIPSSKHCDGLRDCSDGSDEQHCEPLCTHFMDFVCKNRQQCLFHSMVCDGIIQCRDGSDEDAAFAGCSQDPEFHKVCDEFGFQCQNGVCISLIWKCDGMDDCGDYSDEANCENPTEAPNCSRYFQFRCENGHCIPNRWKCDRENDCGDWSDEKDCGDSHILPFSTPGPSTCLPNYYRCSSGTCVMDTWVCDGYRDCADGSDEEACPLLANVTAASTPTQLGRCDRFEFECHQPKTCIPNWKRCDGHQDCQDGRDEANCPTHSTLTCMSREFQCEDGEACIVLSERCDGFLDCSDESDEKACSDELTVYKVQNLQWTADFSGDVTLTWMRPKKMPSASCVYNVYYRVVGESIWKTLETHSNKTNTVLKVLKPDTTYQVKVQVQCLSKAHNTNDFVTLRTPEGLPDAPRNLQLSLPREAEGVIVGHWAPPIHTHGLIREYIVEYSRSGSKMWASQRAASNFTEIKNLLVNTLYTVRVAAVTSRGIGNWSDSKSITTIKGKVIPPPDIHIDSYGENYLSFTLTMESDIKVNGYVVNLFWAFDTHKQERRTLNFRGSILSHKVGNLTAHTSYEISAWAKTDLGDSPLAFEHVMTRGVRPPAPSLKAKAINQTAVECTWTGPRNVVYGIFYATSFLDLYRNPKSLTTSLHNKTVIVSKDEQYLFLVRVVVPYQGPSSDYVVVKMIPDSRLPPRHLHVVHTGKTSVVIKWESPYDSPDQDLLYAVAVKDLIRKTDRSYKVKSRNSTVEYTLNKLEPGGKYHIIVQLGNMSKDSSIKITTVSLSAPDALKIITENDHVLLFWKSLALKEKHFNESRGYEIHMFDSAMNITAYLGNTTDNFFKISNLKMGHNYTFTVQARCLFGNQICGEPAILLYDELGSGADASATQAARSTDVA
T2 sequence (Q92673 82-2137, chain 1 of 2): as the sequence (Q92673 82-2137) above
T2 sequence (P05231 30-212, chain 2 of 2): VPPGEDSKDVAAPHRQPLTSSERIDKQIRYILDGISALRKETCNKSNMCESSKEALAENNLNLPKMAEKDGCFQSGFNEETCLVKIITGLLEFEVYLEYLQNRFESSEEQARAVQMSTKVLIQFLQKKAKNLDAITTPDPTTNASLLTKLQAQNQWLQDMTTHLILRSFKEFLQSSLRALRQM

The molecule “soluble IL-6 receptor (IL-6R ectodomain) (from UniProt P08887 20-365)” yielded an equilibrium dissociation constant (Kd) in assay [1] of 9 nM. “Interleukin-6 (from UniProt P05231 30-212) (ligand)”: the Kd in assay [1] worked out at 12 nM.

B1: soluble IL-6 receptor (IL-6R ectodomain) (receptor, human, UniProt P08887 20-365, looked up)
chain: LAPRRCPAQEVARGVLTSLPGDSVTLTCPGVEPEDNATVHWVLRKPAAGSHPSRWAGMGRRLLLRSVQLHDSGNYSCYRAGRPAGTVHLLVDVPPEEPQLSCFRKSPLSNVVCEWGPRSTPSLTTKAVLLVRKFQNSPAEDFQEPCQYSQESQKFSCQLAVPEGDSSFYIVSMCVASSVGSKFSKTQTFQGCGILQPDPPANITVTAVARNPRWLSVTWQDPHSWNSSFYRLRFELRYRAERSKTFTTWMVKDLQHHCVIHDAWSGLRHVVQLRAQEEFGQGEWSEWSPEAMGTPWTESRSPPAENEVSTPMQALTTNKDDDNILFRDSANATSLPVQDSSSVPLP
notes: interleukin-6 receptor (alpha chain), human, soluble form consisting only of the ectodomain; also called sIL-6R; recombinant human sIL-6R; source: bought: R&D Systems
As for B1, the dissociation constant Kd in assay [2] is around 34 nM; in assay [3], 8 nM.

Usually Kd stands for the concentration at which binding is half-saturated. Lower therefore signals a tighter complex.
